{"source": "patent US20140271457A1", "about": "(AbbVie / Abbott, published 2014)", "binders": {"B1": {"name": "DVD3119 (bispecific antibody, human IgG1, kappa)", "heavy": "not shown", "light": "DVVMTQSPLSLPVTLGQPASISCRSSQSLVHSHGNTYLHWYQQRPGQSPRLLIYTVSNRFSGVPDRFSGSGSGTDFTLKISRVEAEDVGVYYCSQSTHVPYTFGGGTKVEIKRTVAAPDIQMTQSPSSLSASVGDRVTITCRASQDIENYLNWYQQKPGKAPKLLIYYTSRLQSGVPSRFSGSGSGTDFTLTISSLQPEDFATYFCQQGNTQPPTFGQGTKLEIKRTVAAPSVFIFPPSDEQLKSGTASVVCLLNNFYPREAKVQWKVDNALQSGNSQESVTEQDSKDSTYSLSSTLTLSKADYEKHKVYACEVTHQGLSSPVTKSFNRGEC"}, "B2": {"name": "DVD3122 (bispecific antibody, human IgG1, kappa)", "heavy": "not shown", "light": "DVVMTQSPLSLPVTLGQPASISCRSSQSLVHSHGNTYLHWYQQRPGQSPRLLIYTVSNRFSGVPDRFSGSGSGTDFTLKISRVEAEDVGVYYCSQSTHVPYTFGGGTKVEIKRTVAAPDIQMTQSPSSLSASVGDRVTITCRASQDIENYLNWYQQKPGKAPKLLIYYTSRLQSGVPSRFSGSGSGTDFTLTISSLQPEDFATYFCQQGNTQPPTFGQGTKLEIKRTVAAPSVFIFPPSDEQLKSGTASVVCLLNNFYPREAKVQWKVDNALQSGNSQESVTEQDSKDSTYSLSSTLTLSKADYEKHKVYACEVTHQGLSSPVTKSFNRGEC"}, "B3": {"name": "DVD2689 (bispecific antibody, human IgG1, kappa)", "heavy": "not shown", "light": "DIQMTQSPSSLSASVGDRVTISCRASQDIRNYLNWYQQKPGKAPKLLIFYTSKLHSGVPSRFSGSGSGTDYTLTISSLQPEDIATYYCQQGLTPPLTFGGGTKVEIKRTVAAPDIQMTQSPSSLSASVGDRVTITCRASQLVSSAVAWYQQKPGKAPKLLIYWASARHTGVPSRFSGSGSGTDFTLTISSLQPEDFATYYCQQHYKTPFTFGQGTKLEIKRTVAAPSVFIFPPSDEQLKSGTASVVCLLNNFYPREAKVQWKVDNALQSGNSQESVTEQDSKDSTYSLSSTLTLSKADYEKHKVYACEVTHQGLSSPVTKSFNRGEC"}, "B4": {"name": "DVD3121 (bispecific antibody, human IgG1, kappa)", "heavy": "not shown", "light": "DVVMTQSPLSLPVTLGQPASISCRSSQSLVHSHGNTYLHWYQQRPGQSPRLLIYTVSNRFSGVPDRFSGSGSGTDFTLKISRVEAEDVGVYYCSQSTHVPYTFGGGTKVEIKRTVAAPSVFIFPPDIQMTQSPSSLSASVGDRVTITCRASQDIENYLNWYQQKPGKAPKLLIYYTSRLQSGVPSRFSGSGSGTDFTLTISSLQPEDFATYFCQQGNTQPPTFGQGTKLEIKRTVAAPSVFIFPPSDEQLKSGTASVVCLLNNFYPREAKVQWKVDNALQSGNSQESVTEQDSKDSTYSLSSTLTLSKADYEKHKVYACEVTHQGLSSPVTKSFNRGEC"}, "B5": {"name": "DVD3113 (bispecific antibody)", "heavy": "not shown", "light": "DIQMTQSPSSLSASVGDRVTITCRASQDIENYLNWYQQKPGKAPKLLIYYTSRLQSGVPSRFSGSGSGTDFTLTISSLQPEDFATYFCQQGNTQPPTFGQGTKLEIKRGGSGGGGSGDVVMTQSPLSLPVTLGQPASISCRSSQSLVHSHGNTYLHWYQQRPGQSPRLLIYTVSNRFSGVPDRFSGSGSGTDFTLKISRVEAEDVGVYYCSQSTHVPYTFGGGTKVEIKRTVAAPSVFIFPPSDEQLKSGTASVVCLLNNFYPREAKVQWKVDNALQSGNSQESVTEQDSKDSTYSLSSTLTLSKADYEKHKVYACEVTHQGLSSPVTKSFNRGEC"}, "B6": {"name": "DVD3159 (bispecific antibody, human IgG1, kappa)", "heavy": "not shown", "light": "DIQMTQSPSSLSASVGDRVTITCRASQGIRNYLNWYQQKPGKAPKLLIYYASNLEVGVPSRFSGSGSGTDYTLTISSLQPEDFATYYCQQDNRFPYTFGGGTKVEIKRTVAAPDIQMTQSPSSLSASVGDRVTITCKASQLVSSAVAWYQQKPGKAPKLLIYWASTLHTGVPSRFSGSGSGTDFTLTISSLQPEDFATYYCQQHYRTPFTFGQGTKLEIKRTVAAPSVFIFPPSDEQLKSGTASVVCLLNNFYPREAKVQWKVDNALQSGNSQESVTEQDSKDSTYSLSSTLTLSKADYEKHKVYACEVTHQGLSSPVTKSFNRGEC"}, "B7": {"name": "DVD3114 (bispecific antibody)", "heavy": "not shown", "light": "DIQMTQSPSSLSASVGDRVTITCRASQDIENYLNWYQQKPGKAPKLLIYYTSRLQSGVPSRFSGSGSGTDFTLTISSLQPEDFATYFCQQGNTQPPTFGQGTKLEIKRTVAAPDVVMTQSPLSLPVTLGQPASISCRSSQSLVHSHGNTYLHWYQQRPGQSPRLLIYTVSNRFSGVPDRFSGSGSGTDFTLKISRVEAEDVGVYYCSQSTHVPYTFGGGTKVEIKRTVAAPSVFIFPPSDEQLKSGTASVVCLLNNFYPREAKVQWKVDNALQSGNSQESVTEQDSKDSTYSLSSTLTLSKADYEKHKVYACEVTHQGLSSPVTKSFNRGEC"}, "B8": {"name": "DVD3117 (bispecific antibody, human IgG1, kappa)", "heavy": "not shown", "light": "DIQMTQSPSSLSASVGDRVTITCRASQDIENYLNWYQQKPGKAPKLLIYYTSRLQSGVPSRFSGSGSGTDFTLTISSLQPEDFATYFCQQGNTQPPTFGQGTKLEIKRTVAAPDIQMTQSPSSLSASVGDRVTITCRASQLVSSAVAWYQQKPGKAPKLLIYWASARHTGVPSRFSGSGSGTDFTLTISSLQPEDFATYYCQQHYKTPFTFGQGTKLEIKRTVAAPSVFIFPPSDEQLKSGTASVVCLLNNFYPREAKVQWKVDNALQSGNSQESVTEQDSKDSTYSLSSTLTLSKADYEKHKVYACEVTHQGLSSPVTKSFNRGEC"}, "B9": {"name": "DVD2688 (bispecific antibody, human IgG1, kappa)", "heavy": "not shown", "light": "DIQMTQSPSSLSASVGDRVTISCRASQDIRNYLNWYQQKPGKAPKLLIFYTSKLHSGVPSRFSGSGSGTDYTLTISSLQPEDIATYYCQQGLTPPLTFGGGTKVEIKRGGSGGGGSGDIQMTQSPSSLSASVGDRVTITCRASQLVSSAVAWYQQKPGKAPKLLIYWASARHTGVPSRFSGSGSGTDFTLTISSLQPEDFATYYCQQHYKTPFTFGQGTKLEIKRTVAAPSVFIFPPSDEQLKSGTASVVCLLNNFYPREAKVQWKVDNALQSGNSQESVTEQDSKDSTYSLSSTLTLSKADYEKHKVYACEVTHQGLSSPVTKSFNRGEC"}, "B10": {"name": "DVD3118 (bispecific antibody, human IgG1, kappa)", "heavy": "not shown", "light": "DVVMTQSPLSLPVTLGQPASISCRSSQSLVHSHGNTYLHWYQQRPGQSPRLLIYTVSNRFSGVPDRFSGSGSGTDFTLKISRVEAEDVGVYYCSQSTHVPYTFGGGTKVEIKRGGSGGGGSGDIQMTQSPSSLSASVGDRVTITCRASQDIENYLNWYQQKPGKAPKLLIYYTSRLQSGVPSRFSGSGSGTDFTLTISSLQPEDFATYFCQQGNTQPPTFGQGTKLEIKRTVAAPSVFIFPPSDEQLKSGTASVVCLLNNFYPREAKVQWKVDNALQSGNSQESVTEQDSKDSTYSLSSTLTLSKADYEKHKVYACEVTHQGLSSPVTKSFNRGEC"}, "B11": {"name": "DVD3158 (bispecific antibody, human IgG1, kappa)", "heavy": "not shown", "light": "DIQMTQSPSSLSASVGDRVTITCRASQGIRNYLNWYQQKPGKAPKLLIYYASNLEVGVPSRFSGSGSGTDYTLTISSLQPEDFATYYCQQDNRFPYTFGGGTKVEIKRGGSGGGGSGDIQMTQSPSSLSASVGDRVTITCKASQLVSSAVAWYQQKPGKAPKLLIYWASTLHTGVPSRFSGSGSGTDFTLTISSLQPEDFATYYCQQHYRTPFTFGQGTKLEIKRTVAAPSVFIFPPSDEQLKSGTASVVCLLNNFYPREAKVQWKVDNALQSGNSQESVTEQDSKDSTYSLSSTLTLSKADYEKHKVYACEVTHQGLSSPVTKSFNRGEC"}, "B12": {"name": "DVD2713 (bispecific antibody, IgG1)", "VH": "EVQLVESGGGLVQPGGSLRLSCAASGFTFSNYGVTWVRQAPGKGLEWVSMIWADGSTHYASSVKGRFTISRDNSKNTLYLQMNSLRAEDTAVYYCAREWQHGPVAYWGQGTLVTVSSGGGGSGGGGSEVQLVESGGGLVQPGGSLRLSCAASGFSLTNNNVNWVRQAPGKGLEWVGGVWAGGATDYNSALKSRFTISRDNSKNTAYLQMNSLRAEDTAVYYCARDGGYSSSTLYAMDAWGQGTLVTVSS", "VL": "DIQMTQSPSSLSASVGDRVTITCRASQLVSSAVAWYQQKPGKAPKLLIYWASARHTGVPSRFSGSGSGTDFTLTISSLQPEDFATYYCQQHYKTPFTFGQGTKLEIKRGGSGGGGSGDIQMTQSPSSLSASVGDRVTITCRASEDIYNALAWYQQKPGKAPKLLIYNTDTLHTGVPSRFSGSGSGTDYTLTISSLQPEDFATYFCQHYFHYPRTFGQGTKVEIKR"}, "B13": {"name": "DVD2714 (bispecific antibody, IgG1)", "VH": "EVQLVESGGGLVQPGGSLRLSCAASGFTFSNYGVTWVRQAPGKGLEWVSMIWADGSTHYASSVKGRFTISRDNSKNTLYLQMNSLRAEDTAVYYCAREWQHGPVAYWGQGTLVTVSSASTKGPEVQLVESGGGLVQPGGSLRLSCAASGFSLTNNNVNWVRQAPGKGLEWVGGVWAGGATDYNSALKSRFTISRDNSKNTAYLQMNSLRAEDTAVYYCARDGGYSSSTLYAMDAWGQGTLVTVSS", "VL": "DIQMTQSPSSLSASVGDRVTITCRASQLVSSAVAWYQQKPGKAPKLLIYWASARHTGVPSRFSGSGSGTDFTLTISSLQPEDFATYYCQQHYKTPFTFGQGTKLEIKRTVAAPDIQMTQSPSSLSASVGDRVTITCRASEDIYNALAWYQQKPGKAPKLLIYNTDTLHTGVPSRFSGSGSGTDYTLTISSLQPEDFATYFCQHYFHYPRTFGQGTKVEIKR"}, "B14": {"name": "AB267 (antibody, V domains shown)", "VH": "EVQLVESGGGLVQPGGSLRLSCAASGFSLTNNNVNWVRQAPGKGLEWVGGVWAGGATDYNSALKSRFTISRDNSKNTAYLQMNSLRAEDTAVYYCARDGGYSSSTLYAMDAWGQGTLVTVSS", "VL": "DIQMTQSPSSLSASVGDRVTITCRASEDIYNALAWYQQKPGKAPKLLIYNTDTLHTGVPSRFSGSGSGTDYTLTISSLQPEDFATYFCQHYFHYPRTFGQGTKVEIKR"}, "B15": {"name": "DVD3047 (bispecific antibody, IgG1)", "VH": "EVQLVESGGGLVQPGGSLRLSCAASGFSLTNNNVNWVRQAPGKGLEWVGGVWAGGATDYNSALKSRFTISRDNSKNTAYLQMNSLRAEDTAVYYCARDGGYSSSTLYAMDAWGQGTLVTVSSASTKGPSVFPLAPEVQLVQSGAEVKKPGASVKVSCKASGYTFNNYGIIWVRQAPGQGLEWMGWINTYTGKPTYAQKFQGRVTMTTDTSTSTAYMELSSLRSEDTAVYYCARKLFNTVAVTDNAMDYWGQGTTVTVSS", "VL": "DIQMTQSPSSLSASVGDRVTITCRASEDIYNALAWYQQKPGKAPKLLIYNTDTLHTGVPSRFSGSGSGTDYTLTISSLQPEDFATYFCQHYFHYPRTFGQGTKVEIKRTVAAPDIQMTQSPSSLSASVGDRVTITCRASQDIENYLNWYQQKPGKAPKLLIYYTSRLQSGVPSRFSGSGSGTDFTLTISSLQPEDFATYFCQQGNTQPPTFGQGTKLEIKR"}}, "data": [{"target": "Recombinant Human IL-13 (human, UniProt P35225 35-146, limits assumed)", "sequence (P35225 35-146 limits assumed)": "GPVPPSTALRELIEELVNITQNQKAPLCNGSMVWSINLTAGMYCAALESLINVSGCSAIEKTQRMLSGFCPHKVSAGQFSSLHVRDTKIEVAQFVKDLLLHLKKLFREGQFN", "assay": "cell-based or functional assay", "units": {"IL-13 Neutralization Assay IC50": "nM"}, "values": [{"binder": "B1", "IL-13 Neutralization Assay IC50": 0.051}, {"binder": "B2", "IL-13 Neutralization Assay IC50": 0.011}, {"binder": "B3", "IL-13 Neutralization Assay IC50": 0.147}, {"binder": "B4", "IL-13 Neutralization Assay IC50": 0.013}, {"binder": "B5", "IL-13 Neutralization Assay IC50": 0.065}, {"binder": "B6", "IL-13 Neutralization Assay IC50": 0.087}, {"binder": "B7", "IL-13 Neutralization Assay IC50": 0.781}, {"binder": "B8", "IL-13 Neutralization Assay IC50": 0.015}, {"binder": "B9", "IL-13 Neutralization Assay IC50": 0.094}, {"binder": "B10", "IL-13 Neutralization Assay IC50": 0.013}, {"binder": "B11", "IL-13 Neutralization Assay IC50": 0.137}]}, {"target": "Recombinant Human TNF-α/TNFSF1A (human, UniProt P01375 77-233)", "sequence (P01375 77-233 limits assumed)": "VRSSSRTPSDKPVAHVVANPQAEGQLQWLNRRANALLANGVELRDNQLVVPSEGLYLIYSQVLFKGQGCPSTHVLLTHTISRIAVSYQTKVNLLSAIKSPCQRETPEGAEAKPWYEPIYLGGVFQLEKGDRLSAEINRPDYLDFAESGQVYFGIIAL", "assay": "cell-based or functional assay", "units": {"N-Terminal VD huTNFα Neutralization Assay IC50": "nM"}, "values": [{"binder": "B12", "N-Terminal VD huTNFα Neutralization Assay IC50": 0.006}, {"binder": "B13", "N-Terminal VD huTNFα Neutralization Assay IC50": 0.008}]}, {"target": "Recombinant Human β-NGF (human, UniProt P01138 122-241)", "sequence (P01138 122-241 limits assumed)": "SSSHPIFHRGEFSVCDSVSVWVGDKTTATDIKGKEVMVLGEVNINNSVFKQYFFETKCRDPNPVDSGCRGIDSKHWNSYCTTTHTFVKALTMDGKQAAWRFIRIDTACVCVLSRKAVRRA", "assay": "cell-based or functional assay", "units": {"NGF Neutralization Assay IC50": "nM", "N-Terminal VD NGF Neutralization Assay IC50": "nM", "C-Terminal VD NGF Neutralization Assay IC50": "nM"}, "values": [{"binder": "B14", "NGF Neutralization Assay IC50": 0.007}, {"binder": "B15", "N-Terminal VD NGF Neutralization Assay IC50": "> 10"}, {"binder": "B12", "C-Terminal VD NGF Neutralization Assay IC50": 2.9}, {"binder": "B13", "C-Terminal VD NGF Neutralization Assay IC50": 6.85}]}]}
